From article PMC6520328

Molecular target: neonatal Fc receptor (FcRn) (UniProt P55899)
Assay: FcRn binding assay

Chain of UniProt P55899 (P55899 whole entry, looked up, tested part not stated): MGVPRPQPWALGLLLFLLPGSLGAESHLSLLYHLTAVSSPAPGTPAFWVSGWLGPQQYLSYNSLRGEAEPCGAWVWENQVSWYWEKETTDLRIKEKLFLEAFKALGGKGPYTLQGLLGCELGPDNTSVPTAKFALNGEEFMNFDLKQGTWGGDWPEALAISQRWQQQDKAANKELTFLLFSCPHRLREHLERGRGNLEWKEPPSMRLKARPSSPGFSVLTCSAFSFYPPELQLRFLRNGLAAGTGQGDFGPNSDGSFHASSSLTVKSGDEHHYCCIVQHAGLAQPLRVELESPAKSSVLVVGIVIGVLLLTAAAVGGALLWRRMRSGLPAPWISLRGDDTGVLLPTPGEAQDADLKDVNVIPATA

FcRn binding relative to control tralokinumab: 87%
Substance: Fc deglycosylated tralokinumab (antibody)
